Patent publication US20260008847A1 (ELPISCIENCE SUZHOU BIOPHARMA, published 2026)

How the values were obtained:
[1] = target: Human LILRB1 ECD recombinant protein with 6×His-tag (human) (UniProt Q8NHL6); test: ELISA: plate coated with LILRB1 ECD recombinant protein, antibody at 0.5 ug/mL (method of example 3.2.1); mean OD450 printed over the bar [continued) F]
[2] = target: Human LILRA5 ECD recombinant protein with 6×His-tag (human) (UniProt A6NI73); test: ELISA: plate coated with LILRA5 ECD recombinant protein, antibody at 0.5 ug/mL (method of example 3.2.1); mean OD450 printed over the bar [continued) E]
Sequence of Human LILRA5 ECD recombinant protein with 6×His-tag (human) (A6NI73 42-268 limits assumed, form in doubt): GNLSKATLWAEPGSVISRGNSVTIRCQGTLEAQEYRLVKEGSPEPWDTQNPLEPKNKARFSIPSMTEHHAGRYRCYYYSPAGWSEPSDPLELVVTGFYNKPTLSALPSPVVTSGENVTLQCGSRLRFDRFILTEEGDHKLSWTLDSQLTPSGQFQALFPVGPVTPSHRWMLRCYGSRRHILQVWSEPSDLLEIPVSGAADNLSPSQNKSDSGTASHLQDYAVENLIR

[3] = target: Human LILRA2 ECD recombinant protein with His-tag (human) (UniProt Q8N149); test: ELISA: plate coated with LILRA2 ECD recombinant protein, antibody at 0.5 ug/mL (method of example 3.2.1); mean OD450 printed over the bar [continued) B]
Sequence of Human LILRA2 ECD recombinant protein with His-tag (human) (Q8N149 24-449 limits assumed): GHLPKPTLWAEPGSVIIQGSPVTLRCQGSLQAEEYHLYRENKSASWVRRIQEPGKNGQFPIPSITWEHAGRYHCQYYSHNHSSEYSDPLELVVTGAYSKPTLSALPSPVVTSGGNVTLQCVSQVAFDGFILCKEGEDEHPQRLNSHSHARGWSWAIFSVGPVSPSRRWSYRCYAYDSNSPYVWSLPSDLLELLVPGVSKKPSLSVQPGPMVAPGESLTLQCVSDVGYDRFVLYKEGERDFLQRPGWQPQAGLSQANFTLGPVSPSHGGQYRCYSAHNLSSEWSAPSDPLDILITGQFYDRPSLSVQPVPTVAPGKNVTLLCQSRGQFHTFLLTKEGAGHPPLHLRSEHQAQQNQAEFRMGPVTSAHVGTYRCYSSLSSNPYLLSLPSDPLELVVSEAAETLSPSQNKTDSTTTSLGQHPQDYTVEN

[4] = target: Human LILRB5 ECD recombinant protein with 6×His-tag (human) (UniProt O75023); test: ELISA: plate coated with LILRB5 ECD recombinant protein, antibody at 0.5 ug/mL (method of example 3.2.1); mean OD450 printed over the bar [continued) I]
Sequence of Human LILRB5 ECD recombinant protein with 6×His-tag (human) (O75023 24-458 limits assumed): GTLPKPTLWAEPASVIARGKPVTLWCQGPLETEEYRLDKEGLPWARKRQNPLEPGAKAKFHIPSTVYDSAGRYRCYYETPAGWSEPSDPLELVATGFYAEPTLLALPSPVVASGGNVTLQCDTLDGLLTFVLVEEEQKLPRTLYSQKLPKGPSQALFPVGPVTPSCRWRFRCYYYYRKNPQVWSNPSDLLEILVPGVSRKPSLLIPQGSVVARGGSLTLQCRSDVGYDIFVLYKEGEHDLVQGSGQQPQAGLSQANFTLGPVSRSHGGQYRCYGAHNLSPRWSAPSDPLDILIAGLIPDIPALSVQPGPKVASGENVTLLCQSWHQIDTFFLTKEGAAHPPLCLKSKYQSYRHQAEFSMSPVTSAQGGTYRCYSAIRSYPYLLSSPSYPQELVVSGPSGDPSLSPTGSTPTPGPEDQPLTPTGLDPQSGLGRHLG

[5] = target: Human LILRA1 ECD recombinant protein with 6×His-tag (human) (UniProt O75019); test: ELISA: plate coated with LILRA1 ECD recombinant protein, antibody at 0.5 ug/mL (method of example 3.2.1); mean OD450 printed over the bar
Sequence of Human LILRA1 ECD recombinant protein with 6×His-tag (human) (O75019 17-461 limits assumed): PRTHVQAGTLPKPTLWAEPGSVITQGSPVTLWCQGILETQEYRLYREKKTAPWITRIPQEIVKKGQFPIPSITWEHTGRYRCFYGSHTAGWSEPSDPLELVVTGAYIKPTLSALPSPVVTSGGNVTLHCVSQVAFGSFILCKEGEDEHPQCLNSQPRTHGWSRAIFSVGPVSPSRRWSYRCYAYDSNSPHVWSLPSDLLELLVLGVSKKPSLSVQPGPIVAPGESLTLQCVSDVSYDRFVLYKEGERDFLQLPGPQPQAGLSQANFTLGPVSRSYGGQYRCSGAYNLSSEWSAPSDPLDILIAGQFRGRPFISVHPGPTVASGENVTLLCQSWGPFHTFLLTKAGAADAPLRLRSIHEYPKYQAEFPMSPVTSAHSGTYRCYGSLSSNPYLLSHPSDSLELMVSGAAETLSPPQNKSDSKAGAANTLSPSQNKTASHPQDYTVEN

[6] = target: Human LILRA4 ECD recombinant protein with 6×His-tag (human) (UniProt P59901); test: ELISA: plate coated with LILRA4 ECD recombinant protein, antibody at 0.5 ug/mL (method of example 3.2.1); mean OD450 printed over the bar [continued) D]
Sequence of Human LILRA4 ECD recombinant protein with 6×His-tag (human) (P59901 24-446 limits assumed): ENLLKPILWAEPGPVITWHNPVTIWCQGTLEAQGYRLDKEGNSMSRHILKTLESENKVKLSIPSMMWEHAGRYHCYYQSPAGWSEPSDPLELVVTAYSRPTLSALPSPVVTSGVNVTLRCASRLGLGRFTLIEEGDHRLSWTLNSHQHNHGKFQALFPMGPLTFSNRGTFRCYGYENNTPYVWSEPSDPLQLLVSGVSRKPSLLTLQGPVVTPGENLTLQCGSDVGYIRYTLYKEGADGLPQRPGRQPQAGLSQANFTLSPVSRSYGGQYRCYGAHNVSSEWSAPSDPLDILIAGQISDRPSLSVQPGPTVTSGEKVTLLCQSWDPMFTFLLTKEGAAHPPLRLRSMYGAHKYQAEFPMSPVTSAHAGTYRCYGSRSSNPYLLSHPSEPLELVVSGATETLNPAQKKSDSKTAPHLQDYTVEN

[7] = target: Human LILRB3 ECD recombinant protein with 6×His-tag (human) (UniProt O75022); test: ELISA: plate coated with LILRB3 ECD recombinant protein, antibody at 0.5 ug/mL (method of example 3.2.1); mean OD450 printed over the bar [continued) G]
[8] = target: Human LILRA3 ECD recombinant protein with 6×His-tag (human) (UniProt Q8N6C8); test: ELISA: plate coated with LILRA3 ECD recombinant protein, antibody at 0.5 ug/mL (method of example 3.2.1); mean OD450 printed over the bar [continued) C]
Sequence of Human LILRA3 ECD recombinant protein with 6×His-tag (human) (Q8N6C8 24-439 limits assumed, form in doubt): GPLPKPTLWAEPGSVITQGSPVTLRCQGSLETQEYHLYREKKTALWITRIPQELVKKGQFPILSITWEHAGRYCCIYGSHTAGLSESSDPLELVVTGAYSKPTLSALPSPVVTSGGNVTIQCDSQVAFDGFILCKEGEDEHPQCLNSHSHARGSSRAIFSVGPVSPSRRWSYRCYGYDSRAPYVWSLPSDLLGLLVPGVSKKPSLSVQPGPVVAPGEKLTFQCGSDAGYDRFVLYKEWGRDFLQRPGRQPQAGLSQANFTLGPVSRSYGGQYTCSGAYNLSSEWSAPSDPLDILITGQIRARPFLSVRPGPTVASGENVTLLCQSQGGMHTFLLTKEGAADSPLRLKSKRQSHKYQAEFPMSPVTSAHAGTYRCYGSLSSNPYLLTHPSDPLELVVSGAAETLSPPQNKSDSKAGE

[9] = target: 6×His-tagged human LILRB2 ECD recombinant protein (human) (UniProt Q8N423); test: ELISA: plate coated with 6xHis-tagged human LILRB2 ECD, antibody at 0.5 ug/mL, HRP detection antibody; mean OD450 printed over the bar
Sequence of 6×His-tagged human LILRB2 ECD recombinant protein (human) (Q8N423 22-458 limits assumed): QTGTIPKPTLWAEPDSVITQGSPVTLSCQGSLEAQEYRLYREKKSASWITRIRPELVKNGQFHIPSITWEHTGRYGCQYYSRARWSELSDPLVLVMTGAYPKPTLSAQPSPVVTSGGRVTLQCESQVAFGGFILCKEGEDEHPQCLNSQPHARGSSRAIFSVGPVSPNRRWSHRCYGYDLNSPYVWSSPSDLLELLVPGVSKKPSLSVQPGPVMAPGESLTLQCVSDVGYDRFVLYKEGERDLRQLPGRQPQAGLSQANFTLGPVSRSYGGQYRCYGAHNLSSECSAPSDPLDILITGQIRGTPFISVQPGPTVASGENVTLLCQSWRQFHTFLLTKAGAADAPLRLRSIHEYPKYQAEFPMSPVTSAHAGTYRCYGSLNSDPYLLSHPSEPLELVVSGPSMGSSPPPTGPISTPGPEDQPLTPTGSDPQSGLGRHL

[10] = target: Human LILRB4 ECD recombinant protein with 6×His-tag (human) (UniProt Q8NHJ6); test: ELISA: plate coated with LILRB4 ECD recombinant protein, antibody at 0.5 ug/mL (method of example 3.2.1); mean OD450 printed over the bar [continued) H]
[11] = target: T1, 6×His-tagged human LILRB2 ECD recombinant protein (human, UniProt Q8N423 22-458, limits assumed); test: Octet, 1:1 model
T1 construct: Bought protein; not shown: 6×His-tag
T1 sequence (Q8N423 22-458 limits assumed): as above

[12] = target: T2, Human LILRB2 stably expressed on EL4 cells (EL4/LILRB2) (human, UniProt Q8N423 22-597); test: FACS on EL4/LILRB2 cells
T2 construct: also called EL4-LILRB2 cells; cell membrane human LILRB2
T2 sequence (Q8N423 22-597 limits assumed): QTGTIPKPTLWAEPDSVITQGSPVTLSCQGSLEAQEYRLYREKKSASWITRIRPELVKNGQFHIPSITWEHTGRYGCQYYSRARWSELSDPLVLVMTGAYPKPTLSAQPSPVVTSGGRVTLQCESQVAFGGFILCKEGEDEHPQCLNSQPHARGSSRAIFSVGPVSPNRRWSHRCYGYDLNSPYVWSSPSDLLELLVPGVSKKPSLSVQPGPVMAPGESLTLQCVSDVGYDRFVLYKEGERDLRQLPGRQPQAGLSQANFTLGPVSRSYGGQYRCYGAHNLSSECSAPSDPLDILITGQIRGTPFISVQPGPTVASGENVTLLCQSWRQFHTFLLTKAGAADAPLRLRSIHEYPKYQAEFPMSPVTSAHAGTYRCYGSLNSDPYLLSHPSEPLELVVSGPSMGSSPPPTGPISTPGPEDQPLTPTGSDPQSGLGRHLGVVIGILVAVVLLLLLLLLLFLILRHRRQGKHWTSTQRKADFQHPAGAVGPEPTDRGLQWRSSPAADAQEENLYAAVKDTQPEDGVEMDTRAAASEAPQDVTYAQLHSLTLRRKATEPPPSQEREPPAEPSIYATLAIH

[13] = target: T2, Human LILRB2 stably expressed on EL4 …; test: competitive FACS, blockade of HLA-G binding to LILRB2 on cells
Procedure: The blocking activities were determined by quantitating the blockade of the ligands binding to EL4/LILRB2 cells.

[14] = target: T1, 6×His-tagged human LILRB2 ECD …; test: Octet, 1:1 model; column printed as 'ka (1/Ms)', heads of c4 and c5 are swapped
[15] = target: T1, 6×His-tagged human LILRB2 ECD …; test: Octet, 1:1 model; column printed as 'kd (1/s)', heads of c4 and c5 are swapped
[16] = target: T1, 6×His-tagged human LILRB2 ECD …; test: Biacore, 1:1 model
[17] = target: T1, 6×His-tagged human LILRB2 ECD …; test: Biacore, 1:1 model; column printed as 'ka (1/Ms)', heads of c4 and c5 are swapped
[18] = target: T1, 6×His-tagged human LILRB2 ECD …; test: Biacore, 1:1 model; column printed as 'kd (1/s)', heads of c4 and c5 are swapped
[19] = target: T1, 6×His-tagged human LILRB2 ECD …; test: Bio-Layer Interferometry, hybridoma antibody on human LILRB2

Sequence of Human LILRB1 ECD recombinant protein with 6×His-tag (human) (Q8NHL6 24-458 limits assumed): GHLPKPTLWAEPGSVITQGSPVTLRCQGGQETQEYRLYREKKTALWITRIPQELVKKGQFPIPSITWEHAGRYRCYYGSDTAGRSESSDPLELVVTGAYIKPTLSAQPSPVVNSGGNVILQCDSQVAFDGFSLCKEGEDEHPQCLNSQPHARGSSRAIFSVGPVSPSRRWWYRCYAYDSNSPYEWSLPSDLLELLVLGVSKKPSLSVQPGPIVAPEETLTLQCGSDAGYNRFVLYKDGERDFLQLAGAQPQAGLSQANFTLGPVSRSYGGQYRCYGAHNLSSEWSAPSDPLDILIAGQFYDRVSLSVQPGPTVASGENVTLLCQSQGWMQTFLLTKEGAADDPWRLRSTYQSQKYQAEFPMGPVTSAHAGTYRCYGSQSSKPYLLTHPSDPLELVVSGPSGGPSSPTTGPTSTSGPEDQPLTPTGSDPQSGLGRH

Row | Kd [11] [nM] | EC50 [12] [nM] | TOP MFI [12] [MFI] | IC50 [13] [nM] | TOP Blocking (%) [13] [%] | koff [14] [s⁻¹] | kon [15] [M⁻¹ s⁻¹] | Molecule | further results
1 |  |  |  |  |  |  |  | hIgG4 iso (antibody) | OD450 [1]: 0.08; OD450 [2]: 0.08; OD450 [3]: 0.07; OD450 [4]: 0.08; OD450 [5]: 0.15; OD450 [6]: 0.16; OD450 [7]: 0.08; OD450 [8]: 0.08; OD450 [9]: 0.08; OD450 [10]: 0.14
2 | 3.78 | 0.43 | 45000 | 0.11 | 100 | 0.00185 | 488000 | hu043.04 (antibody, V domains shown, Humanized human IgG4 antibody with S228P in the constant region; also called hu043VH6 / hu043VL2) VH: QVQLVQSGAEVKKPGASVKVSCKASGYTFTSYWMYWVRQAPGQGLEWIGHINPSSGYTKYNQKFKDRATLTADTSTSTAYMELSSLRSEDTAVYYCARDPNWDNYWGQGTTVTVSS VL: DIQMTQSPSSLSASVGDRVTITCKASQDVSIAVAWYQQKPGKAPKLLIYSASYRYTGVPSRFSGSGSGTDFTFTISSLQPEDIATYYCQQHYSTPYTFGGGTKLEIK | 
3 | 3.9 | 0.42 | 45100 | 0.09 | 100 | 0.00199 | 501000 | hu043.05 (antibody, V domains shown, Humanized human IgG4 antibody with S228P in the constant region; also called hu043VH7 / hu043VL2) VH: QVQLVQSGAEVKKPGASVKVSCKASGYTFTSYWMYWVRQAPGQGLEWIGHINPSSGYTKYNQKFKDRVTMTADTSTSTVYMELSSLRSEDTAVYYCARDPNWDNYWGQGTTVTVSS VL: DIQMTQSPSSLSASVGDRVTITCKASQDVSIAVAWYQQKPGKAPKLLIYSASYRYTGVPSRFSGSGSGTDFTFTISSLQPEDIATYYCQQHYSTPYTFGGGTKLEIK | 
4 | 3.57 | 0.35 | 45700 | 0.1 | 100 | 0.00184 | 517000 | hu043.02 (antibody, V domains shown, Humanized human IgG4 antibody with S228P in the constant region; also called hu043VH7 / hu043VL4) VH: QVQLVQSGAEVKKPGASVKVSCKASGYTFTSYWMYWVRQAPGQGLEWIGHINPSSGYTKYNQKFKDRVTMTADTSTSTVYMELSSLRSEDTAVYYCARDPNWDNYWGQGTTVTVSS VL: DIVMTQSPSSLSASVGDRVSITCKASQDVSIAVAWYQQKPGKAPKLLIYSASYRYTGVPDRFSGSGSGTDFTFTISSLQPEDIATYYCQQHYSTPYTFGGGTKLEIK | 
5 | 5.22 | 0.41 | 46300 | 0.1 | 100 | 0.00243 | 466000 | hu043.03 (antibody, V domains shown, Humanized human IgG4 antibody with S228P in the constant region; also called hu043VH8 / hu043VL4) VH: QVQLQQSGAEVKKPGASVKLSCKASGYTFTSYWMYWVRQRPGQGLEWIGHINPSSGYTKYNQKFKDRATLTADTSTSTAYMELSSLRSEDTAVYYCARDPNWDNYWGQGTTVTVSS VL: DIVMTQSPSSLSASVGDRVSITCKASQDVSIAVAWYQQKPGKAPKLLIYSASYRYTGVPDRFSGSGSGTDFTFTISSLQPEDIATYYCQQHYSTPYTFGGGTKLEIK | 
6 | 3.63 | 0.4 | 45700 | 0.11 | 100 | 0.00186 | 512000 | hu043.06 (antibody, V domains shown, Humanized human IgG4 antibody with S228P in the constant region; also called hu043VH8 / hu043VL2) VH: QVQLQQSGAEVKKPGASVKLSCKASGYTFTSYWMYWVRQRPGQGLEWIGHINPSSGYTKYNQKFKDRATLTADTSTSTAYMELSSLRSEDTAVYYCARDPNWDNYWGQGTTVTVSS VL: DIQMTQSPSSLSASVGDRVTITCKASQDVSIAVAWYQQKPGKAPKLLIYSASYRYTGVPSRFSGSGSGTDFTFTISSLQPEDIATYYCQQHYSTPYTFGGGTKLEIK | 
7 | 3.19 | 0.42 | 45800 | 0.11 | 100 | 0.00164 | 516000 | hu043.01 (antibody, V domains shown, Humanized human IgG4 antibody with S228P in the constant region; also called hu043VH6 / hu043VL4) VH: QVQLVQSGAEVKKPGASVKVSCKASGYTFTSYWMYWVRQAPGQGLEWIGHINPSSGYTKYNQKFKDRATLTADTSTSTAYMELSSLRSEDTAVYYCARDPNWDNYWGQGTTVTVSS VL: DIVMTQSPSSLSASVGDRVSITCKASQDVSIAVAWYQQKPGKAPKLLIYSASYRYTGVPDRFSGSGSGTDFTFTISSLQPEDIATYYCQQHYSTPYTFGGGTKLEIK | 
8 |  |  |  | 0.19 | 100 |  |  | hu043.07 (antibody, V domains shown, Humanized human IgG4 antibody with S228P in the constant region; also called hu043VH9 / hu043VL1) VH: QVQLVQSGAEVKKPGASVKVSCKASGYTFTSYWMYWVRQAPGQGLEWIGHINPSSGYTKYNQKFKDKATLTADKSTSTAYMELSSLRSEDTAVYYCARDPNWDNYWGQGTTVTVSS VL: DIQMTQSPSSMSASVGDRVTITCKASQDVSIAVAWYQQKPGKAPKLLIYSASYRYTGVPSRFSGSGSGTDFTFTISSVQPEDIATYYCQQHYSTPYTFGGGTKLEIK | Kd [16]: 1.68 nM; koff [17]: 0.00379 s⁻¹; kon [18]: 2.25e+06 M⁻¹ s⁻¹
9 |  |  |  | 0.19 | 100 |  |  | hu043.08 (antibody, V domains shown, Humanized human IgG4 antibody with S228P in the constant region; also called hu043VH10 / hu043VL1) VH: QVQLVQSGAEVKKPGASVKVSCKASGYTFTSYWMYWVRQAPGQGLEWIGHINPSSGYTKYNQKFKDKATLTADKSTSTAYMELSSLRSEDTAVYYCARDPNWDNYWGQGTTLTVSS VL: DIQMTQSPSSMSASVGDRVTITCKASQDVSIAVAWYQQKPGKAPKLLIYSASYRYTGVPSRFSGSGSGTDFTFTISSVQPEDIATYYCQQHYSTPYTFGGGTKLEIK | Kd [16]: 1.71 nM; koff [17]: 0.00378 s⁻¹; kon [18]: 2.21e+06 M⁻¹ s⁻¹
10 |  |  |  |  |  |  |  | monoclonal antibody secreted by hybridoma clone 8G2F10 (antibody, V domains shown, Mouse hybridoma antibody) VH: QVQLQQSGAELAKPGASVKLSCKASGYTFTSYWMYWVKQRPGQGLEWIGHINPSSGYTKYNQKFKDKATLTADKSSSTAYMQLSSLTYEDSAVYYCARDPNWDNYWGQGTTLTVSS VL: DIVMTQSHKFMSTSVGDRVSITCKASQDVSIAVAWYQQKPGQSPKLLIYSASYRYTGVPDRFTGSGSGTDFTFTISSVQAEDLAVYYCQQHYSTPYTFGGGTKLEIK | Kd [19]: 1.35 nM; koff [19]: 0.00139 s⁻¹; kon [19]: 1.04e+06 M⁻¹ s⁻¹
